The source of these data is publication PMC13343975, “A connection between two ancient and essential cellular processes, iron-sulfur protein biogenesis and fatty acid synthesis, in Escherichia coli” (mBio, 2026).

Assay [1] deals with T1, 6His-IscS (E. coli, UniProt P0A6B7 1-404).
T1 construct: IscS cysteine desulfurase, E. coli; IscS-coding region (primers OSD56/OSD57, start codon to stop codon, 1,248 bp fragment) between EcoRI and XhoI of pET6His-TEV; The vector's name tells a TEV site between the 6His tag and the protein; no cleavage is told; also called pET-6His-TEV-iscS; source: E. coli MG1655(DE3), purified (Ni-nitrilotriacetic acid agarose); not shown: 6His, N-terminal, kept
T1 sequence (P0A6B7 whole entry, the tested form may be a part): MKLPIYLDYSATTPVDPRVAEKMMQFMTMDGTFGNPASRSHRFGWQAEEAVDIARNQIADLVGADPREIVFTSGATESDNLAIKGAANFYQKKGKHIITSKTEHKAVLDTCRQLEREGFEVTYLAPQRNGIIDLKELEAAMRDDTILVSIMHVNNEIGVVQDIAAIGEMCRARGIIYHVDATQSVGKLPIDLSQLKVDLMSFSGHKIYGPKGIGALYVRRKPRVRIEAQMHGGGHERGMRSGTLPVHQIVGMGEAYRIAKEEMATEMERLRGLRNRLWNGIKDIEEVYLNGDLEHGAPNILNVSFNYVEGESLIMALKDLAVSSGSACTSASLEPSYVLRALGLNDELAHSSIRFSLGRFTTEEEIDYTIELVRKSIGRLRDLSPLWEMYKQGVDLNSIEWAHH

Assay [2] deals with T1, 6His-IscS. The experiment in a line: native gel or EMSA; 6His-IscS 15 µM with 6His-ACP or variant 30 µM, 20 min at 37°C in 100 mM Hepes, 150 mM NaCl; non-denaturing 12% PAGE, Coomassie Blue. The conditions noted are these: both partners purified. A general note: Mobility shift assays separate free from complexed probe on a gel.

For the molecule “acylated 6His-ACP (from UniProt P0A6A8 1-78) (natural protein)”, the cysteine desulfurase activity of IscS (methylene blue assay), relative to IscS alone in the assay with 6His-IscS [1] stood at 3 fold.

B1: 6His-ACP (natural protein, E. coli, UniProt P0A6A8 1-78, looked up)
chain: MSTIEERVKKIIGEQLGVKQEEVTNNASFVEDLGADSLDTVELVMALEEEFDTEIPDEEAEKITTVQAAIDYINGHQA
modifications: preparation expected to comprise a mixture of apo-ACP, holo-ACP (phosphopantetheine-bound ACP, on Ser36) and a minor fraction of acylated ACP
notes: acyl carrier protein (ACP), E. coli; ACP-coding region (primers OSD146/OSD147, start codon to stop codon, 263 bp fragment) between EcoRI and XhoI of pET6His-TEV; The vector's name tells a TEV site between the 6His tag and the protein; no cleavage is told; also called ACPWT; wild-type ACP; source: E. coli MG1655(DE3), 10 mM pantothenate in the culture, purified (Ni-nitrilotriacetic acid agarose); …
B1: the binding result with 6His-IscS [2] was “binds”.
